The target in one data set is T1, PbAcE (Paenibacillus sp. R4, UniProt A0A452CSP2).
T1 construct: gene cloned in pET-28a (NdeI/XhoI), N-terminal His6 tag cut by thrombin, E. coli BL21(DE3); ~36 kDa monomer, hexamer 234 kDa; 1896 residues modelled in six chains; primers encode N-terminus MPNVDMP and C-terminus IEAYL; catalytic triad Ser185, Asp274, His303
The experiment in a line: p-nitrophenol release at […] nm, initial rates, double reciprocal plot. The class given is biochemical. To be noted: 20 mM Tris-HCl, 150 mM NaCl, pH 7.4; free enzyme.

For data set [1], the target named is cold-active acetyl xylan esterase (PbAcE) from Paenibacillus sp. R4 (Paenibacillus sp. R4). The experiment in a line: AUC; sedimentation velocity, 20°C, 0.5 mg/ml PbAcE, 20 mM Tris-HCl pH 8.0, 150 mM NaCl, 45,000 rpm, SEDFIT.
Substrate in the data set “purified protein”: CCCC(=O)Oc1ccc([N+](=O)[O-])cc1
The experiment in a line: purified protein. In kind it is biochemical, Paenibacillus sp. R4. To be noted: 20 mM Tris-HCl, 150 mM NaCl, pH 7.4, free enzyme.

As to `CC(=O)Oc1ccc([N+](=O)[O-])cc1` [pNP-C2, p-nitrophenyl acetate], the Km result at PbAcE is “initial kinetic studies were performed for pNP-C2 and pNP-C4”.
Molecule “cold-active acetyl xylan esterase (PbAcE) from Paenibacillus sp. R4 (enzyme)” returned a stoichiometry N in data set [1] of 6.

B1: PbAcE (Paenibacillus sp. R4) (protein)
chain: MPNVDMPLSQLQDYKPELTNETDFDLFWDNAKALSNQKPLHAQVNLVQDYPLKSISIYDVVYDGADGTPIHGWYVTPKGEHQPGSLPVLVKYHGYSGNRGYPNELLQWASMGMAALAIDVRGQGGVTPDRAEYPQGGIPGWMTLGILDPASYYYKQVYLDCIRALDFVCSREEVDASRIAVYGGSQGGGLALAAAGLDSRPKLALPVFPFLCHFRRSVEIHASGPYVEIKNWFRRYDPEHRQEEQVYRTLSYFDGMNMASRIKARTLMAITLQDITCPPSTCFAAYNHLAGPKEVRLYHDYGHEGLPFHEEAMMRFIEAYL
notes: gene cloned in pET-28a (NdeI/XhoI), N-terminal His6 tag cut by thrombin, E. coli BL21(DE3); ~36 kDa monomer, hexamer 234 kDa; 1896 residues modelled in six chains; primers encode N-terminus MPNVDMP and C-terminus IEAYL; catalytic triad Ser185, Asp274, His303
In the case of B1, in “purified protein”, the Km is 1230 ± 330 µM and the kcat is 0.19 ± 0.02 s⁻¹.

Usually Km stands for the concentration of substrate that gives half-maximal velocity. By stoichiometry N is commonly meant a count of units in the complex or per binding partner. A word on the kcat: it is the maximal rate divided by the concentration of active sites.

For the origin of these results see article PMC6209228, “Crystal structure and functional characterization of a cold-active acetyl xylan esterase (PbAcE) from psychrophilic soil microbe Paenibacillus sp” (PLoS ONE, 2018).
